# Measurements published in US20220025021A1 (BETH ISRAEL DEACONESS MEDICAL CENTER, published 2022).
# Residue numbers refer to the chain shown, from its start.
# B1: MS-68 (antibody)
# VH: not shown
# VL: DFVLTQSPHSLPVTPGESASISCKSSHSLIHGDRNNYLAWYVQKPGRSPQLLIYLASSRASGVPDRFSGSGSDKDFTLKISRVETEDVGTYYCMQGRESPWTFGQGTKVDIKRTVAAPSVFIFPPSDEQLKSGTASVVCLLNNFYPREAKVQWKVDNALQSGNSQESVTEQDSKDSTYSLSSTLTLSKADYEKHKVYACEVTHQGLSSPVTKSFNRGEC
# B2: MS-71 (antibody)
# VH: not shown
# VL: B1 VL with P12S, D73G
# B3: MS-73 (antibody)
# VH: not shown
# VL: B1 VL with P12S, T85A
# B4: MS-69 (antibody)
# VH: not shown
# VL: B1 VL with P12S, S18P
# B5: MS-70 (antibody, V domains shown)
# VH: QVQLVQSGPEVRKPGTSVKVSCKAPGNTLKTYDLHWVRSVPGQGLQWMGWISHEGDKKVIVERFKAKVTIDWDRSTNTAYLQLSGLTSGDTAVYYCAKGSKHRLRDYALYDDDGALNWAVDVDYLSNLEFWGQGTAVTVSS
# VL: DFVLTQSPHSLSVTPGESASISCKSSHSLIHGDRNNYLAWYVQKPGQSPQLLIYLASSRASGVPDRFSGSGSDKDFTLKISRVETEDVGTYYCMQGRESPWTFGQGTKVDIKR
# B6: MS-75 (antibody, V domains shown)
# VH: B5 VH with P25S
# VL: B5 VL with Q47R
# Target: HIV-1 pseudovirus 263-8 (HIV-1)
# Assay: cell-based or functional assay
Binder,IC50 (neutralization in TZM.bl cells),IC80 (neutralization in TZM.bl cells)
B1,0.011 µg/mL,0.038 µg/mL
B2,0.014 µg/mL,0.041 µg/mL
B3,0.01 µg/mL,0.032 µg/mL
B4,0.01 µg/mL,0.046 µg/mL
B5,0.016 µg/mL,0.047 µg/mL
B6,0.018 µg/mL,0.086 µg/mL

# Target: HIV-1 pseudovirus SC05.8C11.2344 (HIV-1)
# Assay: cell-based or functional assay
Binder,IC50 (neutralization in TZM.bl cells),IC80 (neutralization in TZM.bl cells)
B1,0.708 µg/mL,1.95 µg/mL
B2,0.425 µg/mL,1.41 µg/mL
B3,0.461 µg/mL,1.62 µg/mL
B4,0.456 µg/mL,1.69 µg/mL
B5,0.508 µg/mL,1.36 µg/mL
B6,0.792 µg/mL,3.72 µg/mL

# Target: HIV-1 pseudovirus X1193_c1 (HIV-1)
# Assay: cell-based or functional assay
Binder,IC50 (neutralization in TZM.bl cells),IC80 (neutralization in TZM.bl cells)
B1,0.1 µg/mL,0.287 µg/mL
B2,0.072 µg/mL,0.265 µg/mL
B3,0.085 µg/mL,0.327 µg/mL
B4,0.072 µg/mL,0.326 µg/mL
B5,0.111 µg/mL,0.413 µg/mL
B6,0.174 µg/mL,0.591 µg/mL

# Target: HIV-1 pseudovirus Ce1176_A3 (HIV-1)
# Assay: cell-based or functional assay
Binder,IC50 (neutralization in TZM.bl cells),IC80 (neutralization in TZM.bl cells)
B1,0.096 µg/mL,1.64 µg/mL
B2,0.04 µg/mL,0.796 µg/mL
B3,0.035 µg/mL,0.581 µg/mL
B4,0.087 µg/mL,1.71 µg/mL
B5,0.06 µg/mL,0.968 µg/mL
B6,0.139 µg/mL,2.79 µg/mL

# Target: HIV-1 pseudovirus AC10.0.29 (HIV-1)
# Assay: cell-based or functional assay
Binder,IC50 (neutralization in TZM.bl cells),IC80 (neutralization in TZM.bl cells)
B1,0.04 µg/mL,0.169 µg/mL
B2,0.035 µg/mL,0.177 µg/mL
B3,0.041 µg/mL,0.206 µg/mL
B4,0.029 µg/mL,0.169 µg/mL
B5,0.053 µg/mL,0.206 µg/mL
B6,0.055 µg/mL,0.442 µg/mL

# Target: HIV-1 pseudovirus 6952.v1.c20 (HIV-1)
# Assay: cell-based or functional assay
Binder,IC50 (neutralization in TZM.bl cells),IC80 (neutralization in TZM.bl cells)
B1,0.206 µg/mL,12.9 µg/mL
B2,0.325 µg/mL,7.92 µg/mL
B3,0.222 µg/mL,6.99 µg/mL
B4,0.182 µg/mL,3.06 µg/mL
B5,0.285 µg/mL,4.84 µg/mL
B6,0.977 µg/mL,> 25 µg/mL
